In test [1] the target is T1, A/South Carolina/1/1918 (H1N1) hemagglutinin ectodomain, biotinylated (Influenza A virus A/South …). Nature of the test: yeast surface display titration.
The target in test [2] is T1, A/South Carolina/1/1918 (H1N1) …. Nature of the test: yeast surface display titration. This is another data set of the same source.

Like-named read-outs stand apart in the source and are kept apart here.

B1: HB36.4_s4_E11 (designed binder)
chain: MSNAMDGQQLNRLLLEWIGAWDPFGLGKDAYDVEADAVLKAVYETNSAFDLAMRIHWIYNFAFKRKIPFVHAQKLARRLLELKQAASSPLP
On to B1, for which, in test [1], the binding result is “binds”.

B2: HB80.3_s4_E82 (designed binder)
chain: MASTRGSGRPWKFSENVAFEIALSFTNKDTPDRWAKVARYVRGRTPEEVKKHYE
B2: in test [2], the binding result is recorded as “binds”.

B3: HB80.3_s4_E94 (designed binder)
chain: ASTRGSGRPWKFSENVAFELALYFTNKDTPDRWAKVARYVKGRTPEEVKKHYE
For B3, in test [2], the binding result is “binds”.

The record behind these values is US20140206628A1 (University of Washington, published 2014).
